From paper PMC5849677 (2018)

Key:
Assay in all cases: SPR
[1] = molecular target: hC3d(s)-Fc (Cys to Ser variant of hC3d-Fc) (human, UniProt P01024 1001-1303)
[2] = molecular target: native hC3d (containing 9th cysteine)-Fc (human, UniProt P01024 1001-1303)
[3] = molecular target: hC3dg (aa 955-1303)-Fc (human, UniProt P01024 955-1303)
hC3dg (aa 955-1303)-Fc, sequence (P01024 955-1303): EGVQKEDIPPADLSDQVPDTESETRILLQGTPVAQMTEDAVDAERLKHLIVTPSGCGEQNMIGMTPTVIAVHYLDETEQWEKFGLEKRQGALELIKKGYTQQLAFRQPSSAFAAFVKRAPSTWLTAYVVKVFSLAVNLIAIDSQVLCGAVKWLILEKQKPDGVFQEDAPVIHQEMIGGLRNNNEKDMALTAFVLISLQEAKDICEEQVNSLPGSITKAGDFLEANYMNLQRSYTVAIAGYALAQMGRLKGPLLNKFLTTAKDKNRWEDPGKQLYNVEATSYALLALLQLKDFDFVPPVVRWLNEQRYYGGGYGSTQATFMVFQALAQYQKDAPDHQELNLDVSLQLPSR

hC3d(s)-Fc (Cys to Ser variant of hC3d-Fc), sequence (P01024 other isoform, or with tags, fused parts or gaps mutant): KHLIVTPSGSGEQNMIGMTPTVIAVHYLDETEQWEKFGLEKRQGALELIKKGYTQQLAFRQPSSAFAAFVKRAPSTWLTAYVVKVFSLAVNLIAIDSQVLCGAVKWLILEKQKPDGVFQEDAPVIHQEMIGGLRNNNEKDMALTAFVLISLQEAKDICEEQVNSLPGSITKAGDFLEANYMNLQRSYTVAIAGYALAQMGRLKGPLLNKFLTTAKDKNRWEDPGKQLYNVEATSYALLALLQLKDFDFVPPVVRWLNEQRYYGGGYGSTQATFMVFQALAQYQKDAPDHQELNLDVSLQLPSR
native hC3d (containing 9th cysteine)-Fc, sequence (P01024 1001-1303): as the sequence (P01024 other isoform, or with tags, fused parts or gaps mutant) above, with S10C counted along it

B1: hCR2 (SCR1-4)-Fc (Fc fusion)
chain: ISCGSPPPILNGRISYYSTPIAVGTVIRYSCSGTFRLIGEKSLLCITKDKVDGTWDKPAPKCEYFNKYSSCPEPIVPGGYKIRGSTPYRHGDSVTFACKTNFSMNGNKSVWCQANNMWGPTRLPTCVSVFPLECPALPMIHNGHHTSENVGSIAPGLSVTYSCESGYLLVGEKIINCLSSGKWSAVPPTCEEARCKSLGRFPNGKVKEPPILRVGVTANFFCDEGYRLQGPPSSRCVIAGQGVAWTKMPVCEE
B1 gave a Kd [1] of 7.66 nM, a Kd [2] of 5.18 nM and a Kd [3] of 3.17 nM.
